The values that follow come from paper PMC6429962 (Cell reports, 2019).

For the test, the target named is T1, myc-tagged xFZD8 CRD (cysteine-rich domain of Xenopus Frizzled-8) (Xenopus, UniProt O93274 24-144).
T1 sequence (looked up): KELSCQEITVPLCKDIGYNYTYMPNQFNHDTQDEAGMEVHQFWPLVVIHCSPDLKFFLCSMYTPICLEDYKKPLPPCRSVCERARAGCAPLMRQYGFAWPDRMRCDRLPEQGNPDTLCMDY
Briefly: co-IP.

B1: human Wnt3a lacking the acylation site (hWnt3a^S209A) (ligand, UniProt P56704 19-352, looked up)
chain: SYPIWWSLAVGPQYSSLGSQPILCASIPGLVPKQLRFCRNYVEIMPSVAEGIKIGIQECQHQFRGRRWNCTTVHDSLAIFGPVLDKATRESAFVHAIASAGVAFAVTRSCAEGTAAICGCSSRHQGSPGKGWKWGGCSEDIEFGGMVSREFADARENRPDARSAMNRHNNEAGRQAIASHMHLKCKCHGLAGSCEVKTCWWSQPDFRAIGDFLKDKYDSASEMVVEKHRESRGWVETLRPRYTYFKVPTERDLVYYEASPNFCEPNPETGSFGTRDRTCNVSSHGIDGCDLLCCGRGHNARAERRREKCRCVFHWCCYVSCQECTRVYDVHTCK
As to B1, the “fold reduction of apparent CRD binding strength against the wild type” value is ~10 fold.

B2: wild-type Xenopus Wnt8 (xWnt8^WT) (ligand, UniProt P28026 23-358, looked up)
chain: AWSVNNFLMTGPKAYLTYSASVAVGAQNGIEECKYQFAWERWNCPESTLQLATHNGLRSATRETSFVHAISSAGVMYTLTRNCSMGDFDNCGCDDSRNGRIGGRGWVWGGCSDNAEFGERISKLFVDGLETGQDARALMNLHNNEAGRLAVKETMKRTCKCHGISGSCSIQTCWLQLAEFRDIGNHLKIKHDQALKLEMDKRKMRSGNSADNRGAIADAFSSVAGSELIFLEDSPDYCLKNISLGLQGTEGRECLQSGKNLSQWERRSCKRLCTDCGLRVEEKKTEIISSCNCKFHWCCTVKCEQCKQVVIKHFCARRERDSNMLNTKRKNRGHRR
modifications: acylation site S187 (palmitoleoyl chain), as the paper says of the wild type
In the case of B2, the “fold more efficient co-immunoprecipitation than xWnt8^S187A” value is ~10 fold.
